Values of other authors as cited in patent US5223421A, “Identification of methionine Nα-acetyltransferase” (The General Hospital Corporation, priority 1990, dated 1993).

Molecular target: T1, yeast methionine acetyltransferase (M-N^α AT) (Saccharomyces cerevisiae, UniProt Q06504)
T1 construct: a crude yeast homogenate from the aaa1 mutant strain; endogenous in cells; host or cells: Saccharomyces cerevisiae strain T3A-a (aaa1), crude lysate
T1 sequence (Q06504 1-195): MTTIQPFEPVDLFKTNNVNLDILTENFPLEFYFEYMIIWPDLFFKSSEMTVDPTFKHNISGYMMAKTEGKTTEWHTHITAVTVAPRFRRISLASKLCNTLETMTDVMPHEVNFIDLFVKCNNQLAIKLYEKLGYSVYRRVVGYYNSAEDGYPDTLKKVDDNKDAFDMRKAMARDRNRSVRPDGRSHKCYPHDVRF
T1 sequence (Q12387 2-796 partner limits assumed): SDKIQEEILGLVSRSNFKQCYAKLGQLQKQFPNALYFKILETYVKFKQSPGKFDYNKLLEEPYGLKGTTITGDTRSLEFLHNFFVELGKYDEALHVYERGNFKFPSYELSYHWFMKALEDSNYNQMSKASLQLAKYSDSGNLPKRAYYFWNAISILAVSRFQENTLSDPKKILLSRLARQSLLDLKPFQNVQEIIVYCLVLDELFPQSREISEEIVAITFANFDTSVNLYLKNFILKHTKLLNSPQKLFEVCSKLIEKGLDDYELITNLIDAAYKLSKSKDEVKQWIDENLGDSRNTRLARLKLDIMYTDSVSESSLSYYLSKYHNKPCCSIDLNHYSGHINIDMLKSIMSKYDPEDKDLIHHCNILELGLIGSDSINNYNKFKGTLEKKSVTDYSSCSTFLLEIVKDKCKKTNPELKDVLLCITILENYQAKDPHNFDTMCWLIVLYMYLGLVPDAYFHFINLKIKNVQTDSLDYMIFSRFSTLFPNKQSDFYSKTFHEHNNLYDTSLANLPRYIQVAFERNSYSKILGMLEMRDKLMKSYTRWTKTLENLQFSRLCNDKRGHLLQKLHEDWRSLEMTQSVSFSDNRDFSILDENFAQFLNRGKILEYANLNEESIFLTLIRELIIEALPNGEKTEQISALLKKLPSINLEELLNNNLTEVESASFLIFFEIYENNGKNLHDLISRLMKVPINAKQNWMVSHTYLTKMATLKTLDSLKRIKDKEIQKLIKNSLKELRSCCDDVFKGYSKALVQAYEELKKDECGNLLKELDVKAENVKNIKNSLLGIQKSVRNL
Details: Lee et al., J. Biol. Chem. 265:3603-3606 (1990); cited from earlier work

24 residue synthetic peptide mimicking the NH2 terminus of yeast actin: 24 residue synthetic peptide mimicking the NH2 terminus of yeast actin (MDSEVAALVIDNGSGMCKAGFAGD; UniProt P60010 1-24, looked up, fragment)
N^α -acetylation by yeast M-N^α AT: will acetylate
